Experiment [1] deals with T1, H. pylori KDO-8-P synthase (Helicobacter pylori, UniProt Q9ZN55).
T1 construct: histidine tag; made in house
The experiment can be described thus: KDO-8-P synthase Assay 1, PEP utilization at 232 nm. To be noted: room temperature, 0.3 mM Ara5P, 0.3 mM PEP, pH 7.5. The format is biochemical. The method, then: The enzyme reaction was performed in a final volume of […] containing 0.3 mM Ara5P, 0.3 mM PEP and 0.1 M Tris-acetate pH 7.5. Reactions were started with […] of purified enzyme and were followed spectrophotometrically at 232 nm for 15 minutes. As a control, the mixture minus enzyme was measured. No decrease in the absorbance at 232 nm was observed when no enzyme was added. […] An extinction coefficient of 2840 M cm^−1 of PEP, was used to estimate that at room temperature, the activity of the enzyme was 0.7-mole/min/mg protein.

In experiment [2] the target is T1, H. pylori KDO-8-P synthase. The experiment can be described thus: KDO-8-P synthase Assay 2, Pi release, molybdate-malachite green. The experiment is classed as biochemical. Also noted: unit not given here. The conditions noted are these: 25° C., 0.3 mM Ara5P, 0.3 mM PEP, 1.28 ug/ml enzyme. The method, then: Because of the potential interference of test compounds on the assay at 232 nm, a method was developed to measure the amount of Pi released in the reaction (Lanzatta et al. 1979).
This assay ws performed in a 96 well ELISA place, 50 ul assay mixtures containing 0,1 M Tris-acetate (pH 7.5), 0.3 mM Ara5P and 0.3 mM PEP, and 1.28 ug/ml of KDO-8-P synthase were incubated at 25° C. for different times. The reaction was then quenched with the addition of the molybdate-malachite green reagent. […] Under those conditions, the activity measured was 0.734-moles/min/mg protein, which was similar to the rate that was measured with the 232 nm assay.
When assayed in the presence of 0.02% Brij 35, the reaction proceeded faster. Under those conditions, the activity increased up to 1 mole/min mg protein.

Experiment [3] deals with T1, H. pylori KDO-8-P synthase. The experiment can be described thus: Long term storage stability of KDO-8-P synthase. The method, then: The long term storage stability of the enzyme was tested over several conditions. […] Enzyme stored in 50% glycerol appeared to have less activity during extended storage at −20° C. (FIG. 9).

B1: KDO-8-P synthase: recombinant H. pylori KDO-8-P synthase, histidine-tagged fusion protein (SEQ ID NO: 6945) (protein, listed as Helicobacter pylori)
chain: MKTSNTKTPKPVLIAGPCVIESLENLRSIAIKLQPLANNERLDFYFKASFDKANRTSLESYRGPGLEKGLEMLQTIKDEFGYKILTDVHESYQASVAAKVADILQIPAFLCRQTDLIVEVSQTNAIVNIKKGQFMNPKDMQYSVLKALKTRDSSIQSPTYETALKNGVWLCERGSSFGYGNLVVDMRSLKIMREFAPVIFDATHSVQMPGGANGKSSGDSSFPPILPRAAAAVGIDGLFAETHIDPKNALSDGANMLKPDELEHLVTDMLKIQNLF
modifications: His tag; misc_feature (B) LOCATION 1...276; hypothetical: YES
Take B1: the “activity of the enzyme” value in experiment [1] is 0.7 mole/min/mg protein. The molecule further displayed an activity measured in experiment [2] of 0.734. In addition, the activity after storage result in experiment [3] (50 mM phosphate pH 8.0 and 1 mM PEP, −20° C., at least three weeks) is “no loss of activity”; in experiment [3] (50% glycerol, extended storage at −20° C., FIG. 9), “less activity”.

Values taken from US20040052799A1, “Nucleic acid and amino acid sequences relating to Helicobacter pylori for diagnostics and therapeutics” (Astra Aktiebolag, priority 1996, published 2004).
